This test addresses T1, adenovirus serotype 5 virions (human adenovirus serotype 5).
T1 chain: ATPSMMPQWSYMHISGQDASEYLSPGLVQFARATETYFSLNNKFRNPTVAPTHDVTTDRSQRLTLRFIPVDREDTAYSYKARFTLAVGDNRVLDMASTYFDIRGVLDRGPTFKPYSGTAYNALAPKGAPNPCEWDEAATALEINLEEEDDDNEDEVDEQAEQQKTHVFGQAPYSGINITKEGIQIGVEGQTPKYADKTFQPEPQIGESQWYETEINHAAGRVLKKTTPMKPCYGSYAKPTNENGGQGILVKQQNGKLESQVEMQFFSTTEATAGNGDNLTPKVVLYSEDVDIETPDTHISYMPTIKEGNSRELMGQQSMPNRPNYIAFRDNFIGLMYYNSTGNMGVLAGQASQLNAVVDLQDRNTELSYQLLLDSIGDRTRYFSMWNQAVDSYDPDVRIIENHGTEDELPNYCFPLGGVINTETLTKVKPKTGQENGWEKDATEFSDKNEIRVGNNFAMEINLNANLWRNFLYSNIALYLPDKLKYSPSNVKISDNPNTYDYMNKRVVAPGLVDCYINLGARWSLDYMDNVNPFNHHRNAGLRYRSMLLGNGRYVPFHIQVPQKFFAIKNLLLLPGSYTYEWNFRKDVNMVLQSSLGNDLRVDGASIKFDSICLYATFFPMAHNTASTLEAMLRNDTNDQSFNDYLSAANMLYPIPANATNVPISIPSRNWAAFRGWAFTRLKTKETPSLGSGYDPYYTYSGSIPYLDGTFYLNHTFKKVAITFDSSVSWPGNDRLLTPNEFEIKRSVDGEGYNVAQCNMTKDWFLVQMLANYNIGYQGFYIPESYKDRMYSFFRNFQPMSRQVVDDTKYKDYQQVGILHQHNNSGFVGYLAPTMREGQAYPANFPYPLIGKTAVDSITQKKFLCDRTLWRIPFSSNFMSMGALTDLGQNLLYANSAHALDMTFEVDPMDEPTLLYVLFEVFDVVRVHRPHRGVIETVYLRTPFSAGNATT
Briefly: SPR; Ad virions immobilised on the chip, probed with soluble FX in serial two-fold dilutions from 0.4 to 25 μg/ml, in duplicates. Conditions: both partners purified.

B1: blood coagulation factor X (natural protein)
chain 1: ANSFLEEMKKGHLERECMEETCSYEEAREVFEDSDKTNEFWNKYKDGDQCETSPCQNQGKCKDGLGEYTCTCLEGFEGKNCELFTRKLCSLDNGDCDQFCHEEQNSVVCSCARGYTLADNGKACIPTGPYPCGKQTLER
chain 2: SVAQATSSSGEAPDSITWKPYDAADLDPTENPFDLLDFNQTQPERGDNNLTRIVGGQECKDGECPWQALLINEENEGFCGGTILSEFYILTAAHCLYQAKRFKVRVGDRNTEQEEGGEAVHEVEVVIKHNRFTKETYDFDIAVLRLKTPITFRMNVAPACLPERDWAESTLMTQKTGIVSGFGRTHEKGRQSTRLKMLEVPYVDRNSCKLSSSFIITQNMFCAGYDTKQEDACQGDSGGPHVTRFKDTYFVTGIVSWGEGCARKGKYGIYTKVTAFLKWIDRSMKTRGLPKAKSHAPEVITSSPLK
modifications: Zymogen FX assumed (not FXa): light chain disulfide-linked to heavy chain with the activation peptide retained. Gamma-carboxylated Gla domain, beta-hydroxy-Asp, N-/O-glycosylation; Ca2+-bound state …
Regarding B1, binding was put at a Kd of 1.5 nM.

(Values after article PMC5288196, “Native and engineered tropism of vectors derived from a rare species D adenovirus serotype 43” (Oncotarget, 2016).)
